Laboratory results published in article PMC11515964.

Target: T1, Full-length human GPR1, wild type, N-terminal FLAG tag (pcDNA3.1(+)) (human) (UniProt P46091)
T1 sequence: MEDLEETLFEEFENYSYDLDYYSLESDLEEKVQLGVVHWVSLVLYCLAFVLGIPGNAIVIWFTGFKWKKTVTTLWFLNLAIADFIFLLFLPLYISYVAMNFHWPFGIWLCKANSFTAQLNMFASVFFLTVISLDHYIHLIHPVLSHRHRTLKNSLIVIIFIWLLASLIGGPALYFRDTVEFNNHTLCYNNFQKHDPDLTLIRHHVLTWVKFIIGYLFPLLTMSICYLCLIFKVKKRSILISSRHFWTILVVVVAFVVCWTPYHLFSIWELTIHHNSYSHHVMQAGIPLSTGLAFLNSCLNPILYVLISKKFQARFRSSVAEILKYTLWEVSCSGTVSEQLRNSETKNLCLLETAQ

- EC50 of cAMP inhibition (HeLa) and NanoBiT G protein dissociation (HEK293T): 100 pM
B1: Full-length chemerin (abcam, ab256228) (ligand)
chain: ELTEAQRRGLQVALEEFHKHPPVQWAFQETSVESAVDTPFPAGIFVRLEFKLQQTSCRKRDWKKPECKVRPNGRKRKCLACIKLGSEDKVLGRLVHCPIETQVLREAEEHQETQCLRVQRAGEDPHSFYFPGQFAFS
